# From the Human Domainome abundance scans (Beltran et al. 2025)
# ± gives the uncertainty stated by the source.
# B1: Max-interacting protein 1, residues 70 to 120; numbered along this chain, P50539 (parent)
# chain: STHNELEKNRRAHLRLCLERLKVLIPLGPDCTRHTTLGLLNKAKAHIKKLE
# Variants of: B1
# Assay: abundance fitness (aPCA) (normalised: wild type 0, dead -1); higher = more abundant; growth selection in yeast, the domain comes from the species named
# Conditions: Homo sapiens
row,Variant,abundance fitness
1,STHNELEKNRRAHLRLCLERLKVLIPLGPDCTRLTTLGLLNKAKAHIKKLE,0.081 ± 0.084
2,STHNELEKNRRAHLRLCLERLKVLIPLGPDCTRITTLGLLNKAKAHIKKLE,-0.225 ± 0.14
3,STHNELEKNRRAHLRLCLERLKVLIPLGPDCTRKTTLGLLNKAKAHIKKLE,0.39 ± 0.12
4,STHNELEKNRRAHLRLCLERLKVLIPLGPDCTRDTTLGLLNKAKAHIKKLE,-0.457 ± 0.12
5,STHNELEKNRRAHLRLCLERLKVLIPLGPDCTRGTTLGLLNKAKAHIKKLE,0.114 ± 0.079
6,STHNELEKNRRAHLRLCLERLKVLIPLGPDCTRCTTLGLLNKAKAHIKKLE,-0.063 ± 0.099
7,STHNELEKNRRAHLRLCLERLKVLIPLGPDCVRHTTLGLLNKAKAHIKKLE,0.341 ± 0.079
8,STHNELEKNRRAHLRLCLERLKVLIPLGPDCNRHTTLGLLNKAKAHIKKLE,-0.389 ± 0.17
9,STHNELEKNRRAHLRLCLERLKVLIPLGPDCWRHTTLGLLNKAKAHIKKLE,0.033 ± 0.095
10,STHNELEKNRRAHLRLCLERLKVLIPLGPDCHRHTTLGLLNKAKAHIKKLE,-0.168 ± 0.12
11,STHNELEKNRRAHLRLCLERLKVLIPLGPDCERHTTLGLLNKAKAHIKKLE,-0.354 ± 0.096
12,STHNELEKNRRAHLRLCLERLKVLIPLGPDCMRHTTLGLLNKAKAHIKKLE,0.546 ± 0.12
13,STHNELEKNRRAHLRLCLERLKVLIPLGPDCRRHTTLGLLNKAKAHIKKLE,-0.137 ± 0.075
14,STHNELEKNRRAHLRLCLERLKVLIPLGPDCARHTTLGLLNKAKAHIKKLE,0.163 ± 0.086
15,STHNELEKNRRAHLRLCLERLKVLIPLGPDCLRHTTLGLLNKAKAHIKKLE,0.374 ± 0.089
16,STHNELEKNRRAHLRLCLERLKVLIPLGPDCYRHTTLGLLNKAKAHIKKLE,-0.174 ± 0.16
17,STHNELEKNRRAHLRLCLERLKVLIPLGPDCIRHTTLGLLNKAKAHIKKLE,0.139 ± 0.12
18,STHNELEKNRRAHLRLCLERLKVLIPLGPDCSRHTTLGLLNKAKAHIKKLE,-0.109 ± 0.088
19,STHNELEKNRRAHLRLCLERLKVLIPLGPDCGRHTTLGLLNKAKAHIKKLE,0.012 ± 0.074
20,STHNELEKNRRAHLRLCLERLKVLIPLGPDCQRHTTLGLLNKAKAHIKKLE,-0.112 ± 0.16
21,STHNELEKNRRAHLRLCLERLKVLIPLGPDCCRHTTLGLLNKAKAHIKKLE,0.268 ± 0.12
22,STHNELEKNRRAHLRLCLERLKVLIPLGPDCDRHTTLGLLNKAKAHIKKLE,-0.387 ± 0.11
23,STHNELEKNRRAHLRLCLERLKVLIPLGPDCKRHTTLGLLNKAKAHIKKLE,-0.239 ± 0.12
24,STHNELEKNRRAHLRLCLERLKVLIPLGPDCPRHTTLGLLNKAKAHIKKLE,-0.303 ± 0.15
25,STHNELEKNRRAHLRLCLERLKVLIPLGPRCTRHTTLGLLNKAKAHIKKLE,0.178 ± 0.079
26,STHNELEKNRRAHLRLCLERLKVLIPLGPGCTRHTTLGLLNKAKAHIKKLE,0.178 ± 0.087

row,Variant,abundance fitness
1,STHNELEKNRRAHLRLCLERLKVLIPLGPSCTRHTTLGLLNKAKAHIKKLE,0.279 ± 0.07
2,STHNELEKNRRAHLRLCLERLKVLIPLGPNCTRHTTLGLLNKAKAHIKKLE,0.229 ± 0.085
3,STHNELEKNRRAHLRLCLERLKVLIPLGPHCTRHTTLGLLNKAKAHIKKLE,0.031 ± 0.078
4,STHNELEKNRRAHLRLCLERLKVLIPLGPACTRHTTLGLLNKAKAHIKKLE,0.095 ± 0.077
5,STHNELEKNRRAHLRLCLERLKVLIPLGPYCTRHTTLGLLNKAKAHIKKLE,-0.007 ± 0.077
6,STHNELEKNRRAHLRLCLERLKVLIPLGPFCTRHTTLGLLNKAKAHIKKLE,0.036 ± 0.077
7,STHNELEKNRRAHLRLCLERLKVLIPLGPLCTRHTTLGLLNKAKAHIKKLE,0.183 ± 0.071
8,STHNELEKNRRAHLRLCLERLKVLIPLGPECTRHTTLGLLNKAKAHIKKLE,-0.134 ± 0.12
9,STHNELEKNRRAHLRLCLERLKVLIPLGPTCTRHTTLGLLNKAKAHIKKLE,0.128 ± 0.077
10,STHNELEKNRRAHLRLCLERLKVLIPLGPCCTRHTTLGLLNKAKAHIKKLE,-0.07 ± 0.084
11,STHNELEKNRRAHLRLCLERLKVLIPLGPMCTRHTTLGLLNKAKAHIKKLE,0.118 ± 0.098
12,STHNELEKNRRAHLRLCLERLKVLIPLGPPCTRHTTLGLLNKAKAHIKKLE,0.128 ± 0.076
13,STHNELEKNRRAHLRLCLERLKVLIPLGPQCTRHTTLGLLNKAKAHIKKLE,0.147 ± 0.089
14,STHNELEKNRRAHLRLCLERLKVLIPLGPWCTRHTTLGLLNKAKAHIKKLE,0.034 ± 0.11
15,STHNELEKNRRAHLRLCLERLKVLIPLGPKCTRHTTLGLLNKAKAHIKKLE,0.213 ± 0.11
16,STHNELEKNRRAHLRLCLERLKVLIPLGPICTRHTTLGLLNKAKAHIKKLE,0.151 ± 0.084
17,STHNELEKNRRAHLRLCLERLKVLIPLGPVCTRHTTLGLLNKAKAHIKKLE,0.223 ± 0.079
18,STHNELEKNRRAHLRLCLERLKVLIPLGLDCTRHTTLGLLNKAKAHIKKLE,0.533 ± 0.085
19,STHNELEKNRRAHLRLCLERLKVLIPLGMDCTRHTTLGLLNKAKAHIKKLE,0.282 ± 0.15
20,STHNELEKNRRAHLRLCLERLKVLIPLGGDCTRHTTLGLLNKAKAHIKKLE,-0.119 ± 0.092
21,STHNELEKNRRAHLRLCLERLKVLIPLGTDCTRHTTLGLLNKAKAHIKKLE,0.177 ± 0.12
22,STHNELEKNRRAHLRLCLERLKVLIPLGRDCTRHTTLGLLNKAKAHIKKLE,0.216 ± 0.085
23,STHNELEKNRRAHLRLCLERLKVLIPLGNDCTRHTTLGLLNKAKAHIKKLE,-0.106 ± 0.2
24,STHNELEKNRRAHLRLCLERLKVLIPLGHDCTRHTTLGLLNKAKAHIKKLE,0.262 ± 0.16
25,STHNELEKNRRAHLRLCLERLKVLIPLGEDCTRHTTLGLLNKAKAHIKKLE,-0.296 ± 0.13
26,STHNELEKNRRAHLRLCLERLKVLIPLGSDCTRHTTLGLLNKAKAHIKKLE,0.359 ± 0.092

row,Variant,abundance fitness
1,STHNELEKNRRAHLRLCLERLKVLIPLGCDCTRHTTLGLLNKAKAHIKKLE,0.181 ± 0.12
2,STHNELEKNRRAHLRLCLERLKVLIPLGYDCTRHTTLGLLNKAKAHIKKLE,0.256 ± 0.14
3,STHNELEKNRRAHLRLCLERLKVLIPLGADCTRHTTLGLLNKAKAHIKKLE,0.466 ± 0.11
4,STHNELEKNRRAHLRLCLERLKVLIPLGWDCTRHTTLGLLNKAKAHIKKLE,0.519 ± 0.11
5,STHNELEKNRRAHLRLCLERLKVLIPLGVDCTRHTTLGLLNKAKAHIKKLE,0.401 ± 0.095
6,STHNELEKNRRAHLRLCLERLKVLIPLGKDCTRHTTLGLLNKAKAHIKKLE,0.44 ± 0.12
7,STHNELEKNRRAHLRLCLERLKVLIPLGQDCTRHTTLGLLNKAKAHIKKLE,0.028 ± 0.13
8,STHNELEKNRRAHLRLCLERLKVLIPLGFDCTRHTTLGLLNKAKAHIKKLE,0.413 ± 0.14
9,STHNELEKNRRAHLRLCLERLKVLIPLGDDCTRHTTLGLLNKAKAHIKKLE,-0.387 ± 0.17
10,STHNELEKNRRAHLRLCLERLKVLIPLGIDCTRHTTLGLLNKAKAHIKKLE,0.506 ± 0.17
11,STHNELEKNRRAHLRLCLERLKVLIPLWPDCTRHTTLGLLNKAKAHIKKLE,0.199 ± 0.11
12,STHNELEKNRRAHLRLCLERLKVLIPLYPDCTRHTTLGLLNKAKAHIKKLE,0.133 ± 0.15
13,STHNELEKNRRAHLRLCLERLKVLIPLGPDCTLHTTLGLLNKAKAHIKKLE,-0.438 ± 0.086
14,STHNELEKNRRAHLRLCLERLKVLIPLGPDCTNHTTLGLLNKAKAHIKKLE,-0.372 ± 0.15
15,STHNELEKNRRAHLRLCLERLKVLIPLGPDCTVHTTLGLLNKAKAHIKKLE,-0.293 ± 0.079
16,STHNELEKNRRAHLRLCLERLKVLIPLGPDCTMHTTLGLLNKAKAHIKKLE,-0.394 ± 0.11
17,STHNELEKNRRAHLRLCLERLKVLIPLGPDCTEHTTLGLLNKAKAHIKKLE,-0.667 ± 0.11
18,STHNELEKNRRAHLRLCLERLKVLIPLGPDCTPHTTLGLLNKAKAHIKKLE,-0.225 ± 0.13
19,STHNELEKNRRAHLRLCLERLKVLIPLGPDCTQHTTLGLLNKAKAHIKKLE,-0.116 ± 0.12
20,STHNELEKNRRAHLRLCLERLKVLIPLGPDCTTHTTLGLLNKAKAHIKKLE,-0.576 ± 0.12
21,STHNELEKNRRAHLRLCLERLKVLIPLGPDCTGHTTLGLLNKAKAHIKKLE,-0.257 ± 0.072
22,STHNELEKNRRAHLRLCLERLKVLIPLGPDCTIHTTLGLLNKAKAHIKKLE,-0.691 ± 0.15
23,STHNELEKNRRAHLRLCLERLKVLIPLGPDCTAHTTLGLLNKAKAHIKKLE,-0.338 ± 0.096
24,STHNELEKNRRAHLRLCLERLKVLIPLGPDCTWHTTLGLLNKAKAHIKKLE,-0.075 ± 0.1
25,STHNELEKNRRAHLRLCLERLKVLIPLGPDCTCHTTLGLLNKAKAHIKKLE,-0.365 ± 0.11
26,STHNELEKNRRAHLRLCLERLKVLIPLGPDCTFHTTLGLLNKAKAHIKKLE,-0.129 ± 0.12

row,Variant,abundance fitness
1,STHNELEKNRRAHLRLCLERLKVLIPLGPDCTSHTTLGLLNKAKAHIKKLE,-0.44 ± 0.097
2,STHNELEKNRRAHLRLCLERLKVLIPLGPDCTHHTTLGLLNKAKAHIKKLE,-0.247 ± 0.18
3,STHNELEKNRRAHLRLCLERLKVLIPLGPDCTYHTTLGLLNKAKAHIKKLE,-0.107 ± 0.14
4,STHNELEKNRRAHLRLCLERLKVLIPLGPDCTDHTTLGLLNKAKAHIKKLE,-0.644 ± 0.14
5,STHNELEKNRRAHLRLCLERLKVLIPLGPDCTKHTTLGLLNKAKAHIKKLE,-0.117 ± 0.13
6,STHNELEKNRRAHLRLCLERLKVLIPLGPDWTRHTTLGLLNKAKAHIKKLE,0.19 ± 0.091
7,STHNELEKNRRAHLRLCLERLKVLIPLGPDVTRHTTLGLLNKAKAHIKKLE,0.145 ± 0.079
8,STHNELEKNRRAHLRLCLERLKVLIPLGPDTTRHTTLGLLNKAKAHIKKLE,-0.034 ± 0.12
9,STHNELEKNRRAHLRLCLERLKVLIPLGPDMTRHTTLGLLNKAKAHIKKLE,-0.087 ± 0.12
10,STHNELEKNRRAHLRLCLERLKVLIPLGPDETRHTTLGLLNKAKAHIKKLE,-0.206 ± 0.1
11,STHNELEKNRRAHLRLCLERLKVLIPLGPDHTRHTTLGLLNKAKAHIKKLE,0.308 ± 0.15
12,STHNELEKNRRAHLRLCLERLKVLIPLGPDFTRHTTLGLLNKAKAHIKKLE,0.007 ± 0.13
13,STHNELEKNRRAHLRLCLERLKVLIPLGPDKTRHTTLGLLNKAKAHIKKLE,0.334 ± 0.12
14,STHNELEKNRRAHLRLCLERLKVLIPLGPDATRHTTLGLLNKAKAHIKKLE,0.106 ± 0.081
15,STHNELEKNRRAHLRLCLERLKVLIPLGPDPTRHTTLGLLNKAKAHIKKLE,0.053 ± 0.13
16,STHNELEKNRRAHLRLCLERLKVLIPLGPDNTRHTTLGLLNKAKAHIKKLE,0.185 ± 0.14
17,STHNELEKNRRAHLRLCLERLKVLIPLGPDGTRHTTLGLLNKAKAHIKKLE,0.027 ± 0.072
18,STHNELEKNRRAHLRLCLERLKVLIPLGPDDTRHTTLGLLNKAKAHIKKLE,-0.136 ± 0.14
19,STHNELEKNRRAHLRLCLERLKVLIPLGPDRTRHTTLGLLNKAKAHIKKLE,0.203 ± 0.08
20,STHNELEKNRRAHLRLCLERLKVLIPLGPDITRHTTLGLLNKAKAHIKKLE,0.167 ± 0.13
21,STHNELEKNRRAHLRLCLERLKVLIPLGPDYTRHTTLGLLNKAKAHIKKLE,-0.13 ± 0.12
22,STHNELEKNRRAHLRLCLERLKVLIPLGPDSTRHTTLGLLNKAKAHIKKLE,0.168 ± 0.092
23,STHNELEKNRRAHLRLCLERLKVLIPLGPDQTRHTTLGLLNKAKAHIKKLE,0.072 ± 0.12
24,STHNELEKNRRAHLRLCLERLKVLIPLGPDLTRHTTLGLLNKAKAHIKKLE,0 ± 0.098
